Results: patent publication US20220315631A1, “STAPLED BETA-CATENIN LIGANDS” (Ohio State Innovation Foundation, priority 2019, published 2022)
Positions of bridges follow the written chain, without caps; N, C: chain ends. Non-standard residues stand in square brackets, D forms with d. No end group written: not given here. m‑xylene = 1,3-bis[(methylthio)methyl]benzene scaffold from m-xylene dibromide; miniPEG = polyethylene glycol moiety (linker unit); 1Nal = N[C@@H](Cc1cccc2ccccc12)C(=O)O; 2Nal = N[C@@H](Cc1ccc2ccccc2c1)C(=O)O; Bta = N[C@@H](Cc1csc2ccccc12)C(=O)O; Tle = CC(C)(C)[C@H](N)C(=O)O; Dap = NC[C@H](N)C(=O)O; AEEA = NCCOCCOCC(=O)O; βAla = NCCC(=O)O

B1: Peptide 15 (peptide)
peptide: XXRXRXQGGYPEDILDKHLQRXXL
modifications: not fully specified; N-terminal CPP9-(miniPEG)2; Asp-Lys staple; Z = tert-leucine; 2-Nal = 2-napthylalanine; C-terminal amide
notes: also called CPP9-(miniPEG)2-GGYPEDILDKHLQRZ(2-Nal)L-NH2
B2: Peptide 16 (peptide)
peptide: Ac-GG[Bta]PEDILDKHLQR[Tle][Bta]L-NH2
modifications: lactam 6-10
SMILES: CC[C@H](C)[C@@H]1NC(=O)[C@@H](NC(=O)[C@H](CCC(=O)O)NC(=O)[C@@H]2CCCN2C(=O)[C@H](Cc2csc3ccccc23)NC(=O)CNC(=O)CNC(C)=O)CC(=O)NCCCC[C@@H](C(=O)N[C@@H](Cc2c[nH]cn2)C(=O)N[C@@H](CC(C)C)C(=O)N[C@@H](CCC(N)=O)C(=O)N[C@@H](CCCNC(=N)N)C(=O)N[C@H](C(=O)N[C@@H](Cc2csc3ccccc23)C(=O)N[C@@H](CC(C)C)C(N)=O)C(C)(C)C)NC(=O)[C@H](CC(=O)O)NC(=O)[C@H](CC(C)C)NC1=O
notes: also called Ac-GG(3-Bta)PEDILDKHLQRZ(3-Bta)L-NH2
B3: Peptide 12 (peptide)
peptide: Ac-GGYPEDILDKHLQR[Tle][1Nal]L-NH2
modifications: lactam 6-10
notes: also called Ac-GGYPEDILDKHLQRZ(1-Nal)L-NH2
B4: Peptide 11 (peptide)
peptide: Ac-GGYPEDILDKHLQR[Tle][Bta]L-NH2
modifications: lactam 6-10
notes: also called Ac-GGYPEDILDKHLQRZ(3-Bta)L-NH2
B5: Peptide 18 (peptide)
peptide: Ac-GGYPEDILDKHLQR[Tle][Bta]L[AEEA][AEEA][Dap][dF][2Nal]R[dR]R[dR]Q
modifications: lactam 6-10; bridge (positions not given here); not fully specified (bridges); numbers in words are those of the source; also: cCPP9 ring hung on Dap18 side chain via Gln25 side chain, no backbone bond Dap18-X19
notes: also called Ac-GGYPEDILDKHLQRZ(3-Bta)L-(miniPEG)2-Dap(CPP9)
B6: Peptide 14 (peptide)
peptide: XXRXRXQGGYPEDILDKHLQRXXL
modifications: not fully specified; N-terminal CPP9-(miniPEG)2; Asp-Lys staple; Z = tert-leucine; 3-Bta = 3-benzothienyl-l-alanine; C-terminal amide
notes: also called CPP9-(miniPEG)2-GGYPEDILDKHLQRZ(3-Bta)L-NH2
B7: Peptide 28 (peptide)
peptide: Ac-YPEDILDKHLQRV[Tle]L[miniPEG][miniPEG][Dap]-NH2
modifications: lactam 4-8
notes: also called Ac-YPEDILDKHLQRVZL-(miniPEG)2-Dap-NH2
B8: Peptide 13 (peptide)
peptide: Ac-GGYPEDILDKHLQR[Tle][2Nal]L-NH2
modifications: lactam 6-10
notes: also called Ac-GGYPEDILDKHLQRZ(2-Nal)L-NH2

biological target: T1, GST-β-catenin (UniProt P35222 133-665); assay: Table 7, binding to β-catenin; FP competition as for peptides 2-5 presumed
T1 construct: range 133-665; GST fusion purified on glutathione-agarose and used in the FP assays; also called GST-β-catenin(133-665); pGEX-β-catenin(133-665); not shown: glutathione S-transferase (GST) tag encoded by the pGEX plasmid
T1 sequence (looked up): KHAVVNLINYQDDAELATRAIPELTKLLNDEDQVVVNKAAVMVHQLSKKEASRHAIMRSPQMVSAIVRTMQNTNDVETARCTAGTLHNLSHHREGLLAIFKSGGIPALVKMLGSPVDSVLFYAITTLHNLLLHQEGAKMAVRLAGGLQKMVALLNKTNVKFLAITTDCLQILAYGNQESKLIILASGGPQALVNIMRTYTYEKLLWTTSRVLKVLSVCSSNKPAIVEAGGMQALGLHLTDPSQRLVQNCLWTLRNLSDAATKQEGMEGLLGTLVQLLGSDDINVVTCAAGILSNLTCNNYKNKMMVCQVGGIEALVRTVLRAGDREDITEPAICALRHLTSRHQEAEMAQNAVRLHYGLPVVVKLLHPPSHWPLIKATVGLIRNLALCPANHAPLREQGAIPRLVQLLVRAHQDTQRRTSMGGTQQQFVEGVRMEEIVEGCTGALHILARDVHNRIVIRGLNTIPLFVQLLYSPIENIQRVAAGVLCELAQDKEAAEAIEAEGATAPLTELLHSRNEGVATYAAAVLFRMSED

Row | Binder | IC50 [nM]
1 | B1 | 79.4
2 | Ac-YPEDILDKHLQSV[Bta][dS][miniPEG][miniPEG][Dap]-NH2 (lactam 4-8) [Peptide 23] | 565
3 | Ac-YPEDILDKHLQSV[Bta]T[miniPEG][miniPEG][Dap]-NH2 (lactam 4-8) [Peptide 19] | 382
4 | Ac-YPEDILDKHLQQV[Bta]T[miniPEG][miniPEG][Dap]-NH2 (lactam 4-8) [Peptide 21] | 328
5 | Ac-YPEDILDKHLQEV[Bta]T[miniPEG][miniPEG][Dap]-NH2 (lactam 4-8) [Peptide 20] | 1800
6 | Ac-YPEDILDKHLQ[dE]V[Bta]T[miniPEG][miniPEG][Dap]-NH2 (lactam 4-8) [Peptide 22] | 3500
7 | Ac-GGYPEDILDKHLQRVIL-NH2 (lactam (positions not given here); not fully specified) [Peptide 6] | 245
8 | YPEDILDKHLQRXIL (N-terminal acetyl; Asp-Lys staple; Hvl = β-hydroxyvaline; C-terminal amide) [Peptide 37] | 154
9 | B2 | 97.9
10 | B3 | 175
11 | B4 | 65
12 | B5 | 104
13 | Ac-GGYPEDILDKHLQCVILC[βAla]-NH2 (lactam 6-10; linker 14-18 via m‑xylene, Double stapled peptide) [Peptide 8] | 525000
14 | B6 | 63.5
15 | Ac-GGYPEDILDKHLQR[Tle]WL-NH2 (lactam 6-10, also called Ac-GGYPEDILDKHLQRZWL-NH2) [Peptide 10] | 71
16 | B7 | 306
17 | B8 | 86
